Test results taken from the DeepSol protein solubility set.

Experiment: soluble on expression in E. coli; label from the status in PepcDB or PDB records

## MGHHHHHHHHHHSSGHIDDDDKHMGSMAELKYISGFGNECSSEDPRCPGSLPEGQNNPQVCPYNLYAEQLSGSAFTCPRSTNKRSWLYRILPSVSHKPFESIDEGHVTHNWDEVDPDPNQLRWKPFEIPKASQKKVDFVSGLHTLCGAGDIKSNNGLAIHIFLCNTSMENRCFYNSDGDFLIVPQKGNLLIYTEFGKMLVQPNEICVIQRGMRFSIDVFEETRGYILEVYGVHFELPDLGPIGANGLANPRDFLIPIAWYEDRQVPGGYTVINKYQGKLFAAKQDVSPFNVVAWHGNYTPYKYNLKNFMVINSVAFDHADPSIFTVLTAKSVRPGVAIADFVIFPPRWGVADKTFRPPYYHRNCMSEFMGLIRGHYEAKQGGFLPGGGSLHSTMTPHGPDADCFEKASKVKLAPERIADGTMAFMFESSLSLAVTKWGLKASRCLDENYHKCWEPLKSHFTPNSRNPAEPN
  soluble on expression in E. coli: soluble

## MSLENHHEAKTKLGQLWKLGNHYLLCGDATKLSDVEKLLQGKKANLVVTDPPYNVAVKSDNKELNESGREKIMNDDMSDEEFDQFLMSVFQNYSNAMRDDSAIYVFHGSSYQREFENSMNAAGIVVRSQCIWVKNNATFGWSQYRWQHEPVFYAHKKKQAPSWYGDRKQTTIWQDDLLEDLPATIWKVPRDDVATYYHPTQKPLSLIAIPVRNSSKRQDIVLDLFGGSGSTLMTCEQLNRICYTLELDPLFCDVIIERFEKSTGIIAELVEGHHHHHH
  soluble on expression in E. coli: soluble

## MSYQIQYNDFPTFLRKHFPYKVQKISLNAGFTCPNRDGTKGWGGCTYCNNQTFNPDYCRTEKSIATQLEEGKCFFAHKYPEMKYLAYFQAYTNTYAELEGLKRKYEEALQVDGVVGLVIGTRPDCMPEELLQYLEELNRHTFLMVEYGIESASDETLRRINRGHTYADTVEAVQRTAACGILTGGHVILGLPGETHDTMVEQAGILSALPLSTLKIHQLQLIRGTRMAHEYEENPE
  soluble on expression in E. coli: not soluble

## MGSDKIHHHHHHMRKMAVQKLPEKDFFAPLKAWKFLVRKPVTIEVPNKIRREASERYRGFHVNDWGKCIGCGTCAKICPTDAITMVEVPDLTQEDGKLPQRPVIDYGRCSFCALCVDICTTGSLKMTREYIHISEDPEDFIFMPTDKGLNAKKGLYEFGKAPLGWVRDENSELLDLERIEMPVEPPEVRIKSFIEIVKGYSREQAMQEAARCVECGVCTYTCPEHMDIPQYIKSVYEDNLEEGLRWLYRTNPLSMVCGRVCTHRCETACSVGVRGEPVAIQWLKRYIVDSIPLERYGEILDIKPERKGKSVGIIGSGPAGLAAAYFLATMGYDVTIYESESKPGGVMRYGIPKYRLPDEALDKDIAFIEALGVKILLNTRVVQDVSFEDVRKRHDVVFLATGFGLGRSTGVPGTDHPDVKQALPLLKMIRDYLRGDGPKPPVPERLVVIGGGNVAMDISRSMARLQFMEYGRVNVQVLSLEGCFEDMPADMEEIEEALEEGIVINPGWGPMEVVIENDRIKGVKFKKCVSVFDGEGRFNPQFDEKEQIFVEADMVVEAIGQAPDYSYLPEEIRSKLEFFRGRIKTNEYNQTSVEWLFAGGDIVHGPDIIHGIADGYAAAKGIDMYLRKEK
  soluble on expression in E. coli: not soluble

## MIMLKEYSLKALQTAINQAMKLDEQMPQKLQKLDGKTLEMVITPLNVNFYIRFKGSEMQLLHRIDGRPDTIIHSNPIGLIRLSLLPTSKARSLFNDKIRISGDIELGQSVKKLFDEIDIDWEGHLAHFTGDVVAHQIGSFVRKGLEFKNQFSTSMQQNITEFLQEELRICPSRNELEDFFAEVDELVLSVDRLQAHINNLMSDDEGN
  soluble on expression in E. coli: not soluble

## MDVRSAPSNHATAVPTAQPSAPSIKSTLSKLFRAQCSDPVPLSSSSSTERIAPPRVTANYSAVVDISKTASHSKTNADTAEKNSFSWLKNKLSTVSENQQKKQAIQNFIAQVSQQYNVEEDVAKLAVAASGAYRQLRFEETQQQRVHACLQDTEALTAMIDLATRKPLTYKMVMGLDSSDCSFDPIARISDHDILTEAEQCQVVRSAFASADKVCVVTSYGIKPLGAPKSDALSPTIASVLQGFASKQHDKDFTGVFFYQKSDAIQNYYTEDKRTNISIKENDWAKAVTLFNAAVERGEIEGPKEGLK
  soluble on expression in E. coli: not soluble

## MGSDKIHHHHHHMLEQSIEAFKACVNDWLSAIAQLGEKPNRGNLHRFAYRAIRDKYPQLHSNVVQDAMNLAIEIYRSWLKNGGEFPKFRSDVIYFKGVDVRIENNGLVVPLMGRRVYLPLYVPKKYKKYLQYKHGRVIIKRVDKDWYALVSVNVPEKEPIKPVGTIGVDLGYYNLLVASDEKGRVVMRVQGDILIRHKEHMERLTARRQERLMKKFGIYARTNHKDRRFVNDLNHKIAKALVLKAKQLNRAIVLEKLKGLKKQRRPKLLRKILHLWSYADLIAKIVYKAKLYGVPVIFVSPRGTSKTCSNCGYYVRTFKDDRVFRCPKCGFVADRDYNASINIAKKGLEELRKRTFLPTLKDEASSPQGW
  soluble on expression in E. coli: not soluble

## MSLAEPIESGKQYVELTSAVPVAVPGKIEVIELFWYGCPHCYAFEPTINPWVEKLPSDVNFVRIPAMFGGPWDAHGQLFITLDTMGVEHKVHAAVFEAIQKGGKRLTDKNDMADFVATQGVNKDDFLKTFDSFAVKGKIAQYKELAKKYEVTGVPTMIVNGKYRFDLGSAGGPEKTLQVADQLIDKERAAAKAEGHHHHHH
  soluble on expression in E. coli: soluble

## MDWMPLGDYETFRHWSGKPRAWGPQESGWRAWFGGKIVDGLCEVLDEHLAVRRRGVPAAIGCVPWLSSEAVAETLLALSVFCVVIDKGTSFPSRLRNPDKGFPNVALLRLRDMAPSEHGSRCSSARGRLCLSMS
  soluble on expression in E. coli: not soluble
